Data as given in US20210171647A1 (WUXI BIOLOGICS SHANGHAI, published 2021).
Residue numbers refer to the chain shown, from its start.

Key:
Test in all cases: ELISA, antibody coated, OX40-ECD.His mutant supernatant; relative to silent alanine substitutions;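 note: captured OX40 mutant protein detected with HRP-labelled anti-His antibody, absorbance read-out, scaled to the mean signal of control mutants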
human OX40-ECD.His Q97A = target: T1, human OX40-ECD.His Q97A (human, UniProt P43489 29-214)
T1 construct: extracellular domain; not shown: C-terminal His-tag
T1 sequence (looked up): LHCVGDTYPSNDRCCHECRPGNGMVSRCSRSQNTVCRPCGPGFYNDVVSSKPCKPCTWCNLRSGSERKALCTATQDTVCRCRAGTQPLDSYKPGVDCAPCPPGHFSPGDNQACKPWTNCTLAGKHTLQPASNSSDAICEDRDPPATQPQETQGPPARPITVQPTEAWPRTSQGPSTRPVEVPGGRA

human OX40-ECD.His K96A = target: T2, human OX40-ECD.His K96A (human, UniProt P43489 29-214)
T2 construct: extracellular domain; not shown: C-terminal His-tag
T2 sequence (looked up): T1 sequence (looked up) with K68A, A69Q

human OX40-ECD.His L149A = target: T3, human OX40-ECD.His L149A (human, UniProt P43489 29-214)
T3 construct: extracellular domain; not shown: C-terminal His-tag
T3 sequence (looked up): T1 sequence (looked up) with A69Q, L121A

human OX40-ECD.His G151A = target: T4, human OX40-ECD.His G151A (human, UniProt P43489 29-214)
T4 construct: extracellular domain; not shown: C-terminal His-tag
T4 sequence (looked up): T1 sequence (looked up) with A69Q, G123A

human OX40-ECD.His Q156A = target: T5, human OX40-ECD.His Q156A (human, UniProt P43489 29-214)
T5 construct: extracellular domain; not shown: C-terminal His-tag
T5 sequence (looked up): T1 sequence (looked up) with A69Q, Q128A

human OX40-ECD.His P135A = target: T6, human OX40-ECD.His P135A (human, UniProt P43489 29-214)
T6 construct: extracellular domain; not shown: C-terminal His-tag
T6 sequence (looked up): T1 sequence (looked up) with A69Q, P107A

human OX40-ECD.His G131A = target: T7, human OX40-ECD.His G131A (human, UniProt P43489 29-214)
T7 construct: extracellular domain; not shown: C-terminal His-tag
T7 sequence (looked up): T1 sequence (looked up) with A69Q, G103A

human OX40-ECD.His P157A = target: T8, human OX40-ECD.His P157A (human, UniProt P43489 29-214)
T8 construct: extracellular domain; not shown: C-terminal His-tag
T8 sequence (looked up): T1 sequence (looked up) with A69Q, P129A

human OX40-ECD.His L116A = target: T9, human OX40-ECD.His L116A (human, UniProt P43489 29-214)
T9 construct: extracellular domain; not shown: C-terminal His-tag
T9 sequence (looked up): T1 sequence (looked up) with A69Q, L88A

human OX40-ECD.His N146A = target: T10, human OX40-ECD.His N146A (human, UniProt P43489 29-214)
T10 construct: extracellular domain; not shown: C-terminal His-tag
T10 sequence (looked up): T1 sequence (looked up) with A69Q, N118A

Fold Change (human OX40-ECD.His Q97A): 0.981
Fold Change (human OX40-ECD.His K96A): 0.949
Fold Change (human OX40-ECD.His L149A): 1
Fold Change (human OX40-ECD.His G151A): 0.742
Fold Change (human OX40-ECD.His Q156A): 0.97
Fold Change (human OX40-ECD.His P135A): 0.899
Fold Change (human OX40-ECD.His G131A): 0.958
Fold Change (human OX40-ECD.His P157A): 0.992
Fold Change (human OX40-ECD.His L116A): 0.982
Fold Change (human OX40-ECD.His N146A): 0.73
B1: 1.134.9-u1-IgG1L (antibody, V domains shown)
VH: QVQLQESGPGLVKPSGTLSLTCAVSGGSISSYNWWSWVRQPPGKGLEWIGEIYHGGNTNYNPSLKSRVTMSVDNSKNQFSLKLSSVTAADTAVYYCARAPGDWGGSPYFDFWGQGTLVTVSS
VL: SSELTQDPAVSVALGQTVRITCQGDNLRTYYASWYQQKPGQAPILLIYGRNKRPSGIPDRFSGSSSGNTASLTITGAQAEDEAAYYCNSRDSSGNPVVFGGGTKLTVL
notes: fully human IgG1, lambda
